This is an account of results in publication PMC3404119.

One series has as its target Her1 (zebrafish). In words: MITOMI (mechanically induced trapping of molecular interactions); GFP-tagged Her protein from wheat germ extract immobilised on the microfluidic chip surface with anti-GFP antibody and washed with PBS; mCherry-tagged protein expressed on chip in wheat germ extract with 250 nM Cy5-labelled DNA oligomer; 3 h at room temperature; slope of free against bound mCherry signal as relative affinity.

In series [1] the test system is Her7 (coupled to chip, Fig 2D);Hes6-mCherry (zebrafish;zebrafish). In words: MITOMI. The note with it: MITOMI in wheat germ TnT SP6 expression extract, 3 h at room temperature; PBS wash of immobilized protein; DNA spotted with 1% BSA; salt and pH not stated.
The next series relates to Her1-GFP (zebrafish). In words: MITOMI. The note with it: PPARγ-mCherry present; MITOMI in wheat germ TnT SP6 expression extract, 3 h at room temperature; PBS wash of immobilized protein; DNA spotted with 1% BSA; salt and pH not stated.

Take Her7 (natural protein): the fold lower relative affinity than the Her1 homodimer (Her1-mCherry on Her1-GFP) with Her1 (zebrafish) worked out at 3 fold. As to seq 46 (control), the binding signal (relative to seq 2) was 0.0131 in series [1] and 0.0105 in the series with Her1-GFP (zebrafish). Taken in the same sequence, the figures for seq 47 (control) were 0.0137 and 0.0105.

In the case of “MyoD (myogenic differentiation 1) (from UniProt Q90477 1-275) (natural protein)”, the fold lower relative affinity than the Her1 homodimer (Her1-mCherry on Her1-GFP) with Her1 (zebrafish) came out at 3 fold.
